How the values were obtained:
recombinant CD3 proteins [1] = biological target: T1, recombinant CD3 proteins (UniProt P07766 23-126); test: Octet BLI, recombinant CD3; Full R^2 0.9968
T1 construct: elsewhere it uses human CD3 E/D and E/G heterodimers

recombinant CD3 proteins [2] = biological target: T1, recombinant CD3 proteins; test: Octet BLI, recombinant CD3; Full R^2 0.998

T1 sequence (P07766 23-126): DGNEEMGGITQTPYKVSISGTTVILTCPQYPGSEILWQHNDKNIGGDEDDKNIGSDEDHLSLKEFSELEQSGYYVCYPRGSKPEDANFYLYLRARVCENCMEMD

Row | Kd (recombinant CD3 proteins [1]) [nM] | koff (recombinant CD3 proteins [1]) [s⁻¹] | kon (recombinant CD3 proteins [1]) [M⁻¹ s⁻¹] | Kd (recombinant CD3 proteins [2]) [nM] | koff (recombinant CD3 proteins [2]) [s⁻¹] | kon (recombinant CD3 proteins [2]) [M⁻¹ s⁻¹] | Binder
1 | 334 | 0.00459 | 13800 | – | – | – | CD3 × CD33-BspAb90 (bispecific antibody) chain 1: not shown chain 2: EVQLVQSGAEVKKPGSSVKVSCKASGYTITDSNIHWVRQAPGQSLEWIGYIYPYNGGTDYNQKFKNRATLTVDNPTNTAYMELSSLRSEDTAFYYCVNGNPWLAYWGQGTLVTVSSASTKGPSVFPLAPSSKSTSGGTAALGCLVKDYFPEPVTVSWNSGALTSGVHTFPAVLQSSGLYSLSSVVTVPSSSLGTQTYICNVNHKPSNTKVDKRVEPKSCDKTHTCPPCPAPEFEGGPSVFLFPPKPKDTLMISRTPEVTCVVVDVSHEDPEVKFNWYVDGVEVHNAKTKPREEQYNSTYRVVSVLTVLHQDWLNGKEYKCKVSNKALPASIEKTISKAKGQPREPQVCTLPPSREEMTKNQVSLSCAVKGFYPSDIAVEWESNGQPENNYKTTPPVLDSDGSFFLVSKLTVDKSRWQQGNVFSCSVMHEALHNRFTQKSLSLSPGK chain 3: DIQLTQSPSTLSASVGDRVTITCRASESLDNYGIRFLTWFQQKPGKAPKLLMYAASNQGSGVPSRFSGSGSGTEFTLTISSLQPDDFATYYCQQTKEVPWSFGQGTKVEVKRTVAAPSVFIFPPSDEQLKSGTASVVCLLNNFYPREAKVQWKVDNALQSGNSQESVTEQDSKDSTYSLSSTLTLSKADYEKHKVYACEVTHQGLSSPVTKSFNRGEC
2 | – | – | – | 63.8 | 0.00203 | 31900 | CD3 × CD33-BspAb91 (bispecific antibody) chain 1: DIQMTQSPSTLSASVGDRVTITCRASQSISSWLAWFQQKTGKAPKLLIYKASSLESGVPSRFSGSGSGTEFTLTISSLQPDDFATYYCQQYISYSWTFGCGTKVEIKGGGGSGGGGSGGGGSGGGGSEVQLVESGGGLVQRGGSLRLSCAASGFTFSNYWMSWVRQAPGKCLEWVANIKEDGSEKYYVDSVKGRFTISRDNAKHSLYLQMNSLRAEDTAVYYCARERRTGYFDYWGQGTLVTVSSDKTHTCPPCPAPEFEGGPSVFLFPPKPKDTLMISRTPEVTCVVVDVSHEDPEVKFNWYVDGVEVHNAKTKPREEQYNSTYRVVSVLTVLHQDWLNGKEYKCKVSNKALPASIEKTISKAKGQPREPQVYTLPPCREEMTKNQVSLWCLVKGFYPSDIAVEWESNGQPENNYKTTPPVLDSDGSFFLYSKLTVDKSRWQQGNVFSCSVMHEALHNHYTQKSLSLSPGK chain 2: EVQLVQSGAEVKKPGSSVKVSCKASGYTITDSNIHWVRQAPGQSLEWIGYIYPYNGGTDYNQKFKNRATLTVDNPTNTAYMELSSLRSEDTAFYYCVNGNPWLAYWGQGTLVTVSSASTKGPSVFPLAPSSKSTSGGTAALGCLVKDYFPEPVTVSWNSGALTSGVHTFPAVLQSSGLYSLSSVVTVPSSSLGTQTYICNVNHKPSNTKVDKRVEPKSCDKTHTCPPCPAPEFEGGPSVFLFPPKPKDTLMISRTPEVTCVVVDVSHEDPEVKFNWYVDGVEVHNAKTKPREEQYNSTYRVVSVLTVLHQDWLNGKEYKCKVSNKALPASIEKTISKAKGQPREPQVCTLPPSREEMTKNQVSLSCAVKGFYPSDIAVEWESNGQPENNYKTTPPVLDSDGSFFLVSKLTVDKSRWQQGNVFSCSVMHEALHNRFTQKSLSLSPGK chain 3: DIQLTQSPSTLSASVGDRVTITCRASESLDNYGIRFLTWFQQKPGKAPKLLMYAASNQGSGVPSRFSGSGSGTEFTLTISSLQPDDFATYYCQQTKEVPWSFGQGTKVEVKRTVAAPSVFIFPPSDEQLKSGTASVVCLLNNFYPREAKVQWKVDNALQSGNSQESVTEQDSKDSTYSLSSTLTLSKADYEKHKVYACEVTHQGLSSPVTKSFNRGEC

From patent US20260167721A1 (ABLEXIS, published 2026)
